Measured values from IntAct's records for PubMed 24899623.

B1: Leukocyte immunoglobulin-like receptor subfamily B member 2 (Homo sapiens), Q8N423 (parent)
chain: MTPIVTVLICLGLSLGPRTRVQTGTIPKPTLWAEPDSVITQGSPVTLSCQGSLEAQEYRLYREKKSASWITRIRPELVKNGQFHIPSITWEHTGRYGCQYYSRARWSELSDPLVLVMTGAYPKPTLSAQPSPVVTSGGRVTLQCESQVAFGGFILCKEGEDEHPQCLNSQPHARGSSRAIFSVGPVSPNRRWSHRCYGYDLNSPYVWSSPSDLLELLVPGVSKKPSLSVQPGPVMAPGESLTLQCVSDVGYDRFVLYKEGERDLRQLPGRQPQAGLSQANFTLGPVSRSYGGQYRCYGAHNLSSECSAPSDPLDILITGQIRGTPFISVQPGPTVASGENVTLLCQSWRQFHTFLLTKAGAADAPLRLRSIHEYPKYQAEFPMSPVTSAHAGTYRCYGSLNSDPYLLSHPSEPLELVVSGPSMGSSPPPTGPISTPGPEDQPLTPTGSDPQSGLGRHLGVVIGILVAVVLLLLLLLLLFLILRHRRQGKHWTSTQRKADFQHPAGAVGPEPTDRGLQWRSSPAADAQEENLYAAVKDTQPEDGVEMDTRAAASEAPQDVTYAQLHSLTLRRKATEPPPSQEREPPAEPSIYATLAIH
partner: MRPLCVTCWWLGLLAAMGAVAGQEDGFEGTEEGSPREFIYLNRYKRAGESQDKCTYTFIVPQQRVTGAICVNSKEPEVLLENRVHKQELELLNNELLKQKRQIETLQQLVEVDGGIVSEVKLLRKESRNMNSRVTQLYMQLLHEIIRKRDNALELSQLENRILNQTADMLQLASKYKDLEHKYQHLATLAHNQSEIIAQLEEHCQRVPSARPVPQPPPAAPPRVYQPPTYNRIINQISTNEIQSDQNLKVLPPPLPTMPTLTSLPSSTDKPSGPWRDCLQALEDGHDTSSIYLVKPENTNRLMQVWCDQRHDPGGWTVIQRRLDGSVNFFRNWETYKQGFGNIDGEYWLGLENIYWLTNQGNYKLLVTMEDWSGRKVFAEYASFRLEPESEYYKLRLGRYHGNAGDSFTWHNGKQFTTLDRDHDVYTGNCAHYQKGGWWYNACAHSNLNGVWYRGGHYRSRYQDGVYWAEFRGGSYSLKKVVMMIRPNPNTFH
B2: Leukocyte immunoglobulin-like receptor subfamily B member 2 (Homo sapiens), Q8N423 (parent)
chain: B1 chain

Variants of: B1
Settings: with angl2_human ANGPTL2, Q9UKU9

Variant	effect of a mutation on the interaction
Y96A	decreasing interaction strength
Y100G	decreasing interaction strength
H92S	with no effect
G97R	with no effect
T393E	with no effect
Y96A;T393E	decreasing interaction strength
R59A;Y61A;W90A;D200A;N202A;Y205A	decreasing interaction strength
T93A	increasing interaction strength
G392D	with no effect
G94D	decreasing interaction strength
R95E	decreasing interaction strength
Y96A;G392D	disrupting interaction strength
R59A;Y61A	decreasing interaction strength
Y96A;Y394A	disrupting interaction strength
Q99R	with no effect
H92S;T93A;G94D;R95E;Y96A;G97R;Q99R;Y100G	decreasing interaction strength
Y394A	decreasing interaction strength
W90A;D200A;N202A;Y205A	with no effect

Variants of: B2
Settings: with angl5_human ANGPTL5, Q86XS5
Sequence of angl5_human ANGPTL5, Q86XS5 (Q86XS5 whole entry): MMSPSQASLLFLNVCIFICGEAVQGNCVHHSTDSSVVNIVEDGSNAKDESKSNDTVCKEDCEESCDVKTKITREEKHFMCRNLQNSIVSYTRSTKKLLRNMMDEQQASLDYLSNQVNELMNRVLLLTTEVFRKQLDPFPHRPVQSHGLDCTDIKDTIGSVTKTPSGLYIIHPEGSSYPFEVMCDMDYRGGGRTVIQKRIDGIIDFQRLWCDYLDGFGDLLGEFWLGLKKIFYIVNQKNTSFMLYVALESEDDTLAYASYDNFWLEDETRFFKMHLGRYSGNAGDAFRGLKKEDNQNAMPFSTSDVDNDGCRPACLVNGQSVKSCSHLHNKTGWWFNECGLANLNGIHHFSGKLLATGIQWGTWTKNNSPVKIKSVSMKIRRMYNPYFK

Variant	effect of a mutation on the interaction
R59A;Y61A;W90A;D200A;N202A;Y205A	decreasing interaction strength
Y394A	decreasing interaction strength
T393E	decreasing interaction strength
R95E	decreasing interaction strength
Y100G	decreasing interaction strength
Y96A;G392D	disrupting interaction strength
Y96A;T393E	disrupting interaction strength
G94D	disrupting interaction strength
W90A;D200A;N202A;Y205A	decreasing interaction strength
H92S	decreasing interaction strength
Y96A	decreasing interaction strength
G97R	with no effect
Y96A;Y394A	disrupting interaction strength
T93A	decreasing interaction strength
Q99R	decreasing interaction strength
R59A;Y61A	with no effect
G392D	decreasing interaction strength
